Assay [1] addresses T1, purified recombinant IFNAR-1 extracellular fragment (human, UniProt P17181 28-436).
T1 construct: extracellular domain; also called soluble IFNAR-1; soluble IFNAR
T1 sequence (looked up): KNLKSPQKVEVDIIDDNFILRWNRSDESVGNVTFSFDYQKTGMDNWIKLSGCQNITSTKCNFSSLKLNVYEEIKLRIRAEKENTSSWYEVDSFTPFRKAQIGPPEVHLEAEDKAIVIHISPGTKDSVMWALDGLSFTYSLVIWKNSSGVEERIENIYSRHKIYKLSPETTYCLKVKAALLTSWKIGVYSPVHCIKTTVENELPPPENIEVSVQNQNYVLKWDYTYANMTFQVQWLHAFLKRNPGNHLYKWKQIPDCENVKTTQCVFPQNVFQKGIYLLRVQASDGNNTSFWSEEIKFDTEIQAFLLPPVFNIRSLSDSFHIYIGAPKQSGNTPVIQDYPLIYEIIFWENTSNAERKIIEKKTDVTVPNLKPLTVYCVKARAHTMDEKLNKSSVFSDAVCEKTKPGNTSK
Description: Biacore, 200 nM antibody on immobilized soluble IFNAR-1. (In SPR one partner is held on a chip, and binding of the other changes the refractive index at the surface.)

For assay [2], the target named is T2, IFNAR-1 on human cells (human, UniProt P17181 28-557).
T2 construct: whole, on cells; Endogenous receptor on cells; the cells also carry IFNAR-2; also called BALL-1 cells, which express IFNAR-1 and IFNAR-2; Daudi cells
T2 sequence (looked up): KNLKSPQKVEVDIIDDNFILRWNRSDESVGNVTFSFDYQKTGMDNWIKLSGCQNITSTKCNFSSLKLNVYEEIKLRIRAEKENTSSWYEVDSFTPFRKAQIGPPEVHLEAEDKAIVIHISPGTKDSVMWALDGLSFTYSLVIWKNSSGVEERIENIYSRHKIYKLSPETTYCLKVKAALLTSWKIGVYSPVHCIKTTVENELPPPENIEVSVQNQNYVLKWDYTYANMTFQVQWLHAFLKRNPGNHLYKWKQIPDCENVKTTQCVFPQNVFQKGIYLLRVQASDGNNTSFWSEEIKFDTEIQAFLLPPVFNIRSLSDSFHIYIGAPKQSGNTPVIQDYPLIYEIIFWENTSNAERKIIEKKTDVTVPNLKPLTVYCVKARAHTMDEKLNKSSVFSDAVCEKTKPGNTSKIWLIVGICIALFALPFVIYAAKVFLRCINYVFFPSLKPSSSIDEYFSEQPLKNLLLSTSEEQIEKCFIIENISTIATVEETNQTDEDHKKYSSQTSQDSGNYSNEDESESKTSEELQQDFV
Description: Scatchard analysis, 125I-labelled antibody on BALL-1 cells. The method, then: BALL-1 cells, which express IFNAR-1 and IFNAR-2, were used to assess the binding of anti-IFNAR-1 humanized antibodies to cells by Scatchard analysis. The cells were grown in RPMI containing 10% FCS and washed twice with Hanks Balanced Salt Solution (HBSS) at 4 degrees C. […] Millipore plates (MAFB NOB) were coated with 1% nonfat dry milk in water and stored a 4° C. overnight. The plates were washed with binding buffer and 25 ul of unlabeled antibody (1000-fold excess) in TBS binding buffer was added to control wells in a Millipore 96 well glass fiber filter plate (non-specific binding NSB). Twenty-five microliters of buffer alone was added to the maximum binding control well (total binding). Twenty-five microliters of ¹²⁵I-anti-IFNAR-1 antibody and 25 ul of BALL-I cell suspension (4×10⁷ cells/ml) in TBS binding buffer were added. The plates were incubated for 2 hours at 200 RPM on a shaker at 4° C. At the completion of the incubation the Millipore plates were washed twice with 0.2 ml of cold TBS binding buffer containing a final concentration of 0.5 M NaCl. The filters were removed and counted in a gamma counter. Evaluation of equilibrium binding was performed using single site binding parameters with the Prism software (San Diego, Calif.).
Therefore in either a protein-based or cell-based assay, the binding affinity of the antibodies are in the low nM range.

Assay [3] concerns the target T2, IFNAR-1 on human cells. Description: cell-based or functional assay.
Assay [4] has as its target T1, purified recombinant IFNAR-1 …. Description: Receptor Binding (Biacore), purified recombinant receptor.
Assay [5] shares this target. Description: Biacore, antibody captured on anti-human IgG Fc, soluble IFNAR-1 25-400 nM, flow cell 4-3 higher density capture. The text has this: (§1) The binding affinity of M3K1 was compared to that of H3K1.
Assay [6] has the same target. Description: Biacore, maximal association on IFNAR-1 relative to M3K1. From the text: (§2) Pools 4 and 11 were selected for further study and the individual antibodies in each pool were produced and expressed separately. The sequences of these individual antibodies were as shown in SEQ ID NO:12 of FIG. 1F and SEQ ID NO: 13 of FIG. 1G. The data is presented as maximal association relative to M3K1. […]

Assay [7] has the same target. Description: Biacore, antibody on immobilized soluble IFNAR-1, maximal response, mean of four. Here is the method:
Additional combination variants heavy chain DI M3-B and light chain DI K1-C were also made. These combination variants were also tested for binding to IFNAR-1. […] Binding analysis was done by Biacore, with the antibody bound to immobilized soluble IFNAR-1. Maximal response was determined at two concentrations and values shown are mean of four determinations.

For assay [8] the target is unchanged. Description: Biacore, maximal association on IFNAR-1 relative to M3K1.
Source text: as §2
This is another data set of the same source.

Assay [9] shares this target. Description: Biacore, antibody captured on anti-human IgG Fc, soluble IFNAR-1 25-400 nM, flow cell 2-1 low density capture.
Source text: as §1

For assay [10] the target is unchanged. Description: Biacore, IFNAR-1 extracellular fragment coupled to CM5 chip, antibody 1.75-80 nM. The method, then:
Antibodies from clones 64G12, H2K6, H2K1, H3K6, and H3K1 were assayed by Biacore analysis (Biacore AB, Uppsala, Sweden) to determine binding kinetics. Purified recombinant IFNAR-1 extracellular fragment was coupled to the CM5 sensor chip @ 600 RU. Binding was measured by adding antibody at concentrations from 1.75-80 nM at a flow rate of 20 ul/min. The binding curves were fit to a Langmuir binding model using BIAevaluation software (Biacore AB, Uppsala, Sweden).

Assay [11] has the same target. Description: Biacore, response on IFNAR-1 (flow cell 2) divided by response on anti-human IgG Fc (flow cell 4).

Where two headings read alike, the source gives them in different places.

B1: H3K1 (IgG4) (antibody, V domains shown)
VH: EVQLVESGGGLVQPGGSLRLSCAFSGFTLSTSGMGIGWVRQAPGKGLEWVAHIWWDDDKYYNPSLKSRFTISRDTSKNTVYLQMNSLRAEDTAVYYCARNYYPYDAWFDYWGQGTLVTVS
VL: DIQMTQSPSSLSASVGDRVTITCSASSSINSNHLHWYQQKPGKAPKLLIYRTSILASGVPSRFSGSGSGTSFTLTISSLQPEDFATYYCQQGSNIPFTFGQGTKVEIKR
notes: also called H3K1 standard; humanized anti-IFNAR-1 mAb H3K1
The term Kd denotes the concentration at which binding is half-saturated. What is called koff is the first-order rate constant of dissociation. What is called kon is a measure of how fast the partners come together. B1: the “Max Response relative to H3K1 (%)” value in [1] turned out to be 100%. The Kd is 4 nM with IFNAR-1 on human cells [2]; 3.4 nM in assay [4]; 6.43 nM in assay [5]; 6.26 nM in assay [9]; 3.4 nM in assay [10]. The “Cell Proliferation (Daudi) IC50, cells cultured with interferon α2b” value in the assay with IFNAR-1 on human cells [3] stood at 9.1 nM. Further, in the assay with IFNAR-1 on human cells [3], the “ISRE-RG Reporter (U937) IC50, interferon α2b” value is 21.5 nM. Besides, the off-rate constant (koff) in [5] is 4.81e-05 s⁻¹; in assay [9], 5.04e-05 s⁻¹. Moreover, the association rate constant (kon) in assay [5] is 7480 M⁻¹ s⁻¹; in [9], 8060 M⁻¹ s⁻¹. Besides, the results for the “% activity relative to M3K1” value in assay [6] and in [8] were 138% and 115%, respectively. In assay [7], the “% response relative to H3K1” value was found to be 100%. In addition, the “% activity relative to H3K1” value in assay [11] was 100%. Also, in assay [11], the Fc2/Fc4 amounted to 0.3.

Source of the values: patent US20050208041A1 (Bristol-Myers Squibb, published 2005).
